Drawing on article doi:10.1101/2021.10.13.464285, this text covers stoichiometry N for one substance.

The assay concerns the target Respiratory syncytial virus fusion (F) glycoprotein (respiratory syncytial virus, strain rA2-mK+ (parent strain A2)). Description: cryo-EM structure.

In general, stoichiometry N refers to a count of units in the complex or per binding partner. Consider “Respiratory syncytial virus fusion (F) glycoprotein (natural protein)”, for which the stoichiometry N came out at 3.
